The target of experiment [1] is T1, human myostatin (human, UniProt O14793 267-375, biotinylated in selections and radioactive assays (site not stated)).
T1 construct: Phage ELISA used both unbiotinylated and biotinylated myostatin; also called biotinylated human myostatin; myostatin-biotin
T1 sequence (looked up): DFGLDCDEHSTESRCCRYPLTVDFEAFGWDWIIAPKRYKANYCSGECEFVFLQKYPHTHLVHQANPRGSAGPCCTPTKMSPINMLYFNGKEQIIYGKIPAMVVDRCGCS
Put plainly: radioactive equilibrium binding assay.

The target of experiment [2] is T1, human myostatin. Put plainly: radioactive equilibrium binding assay. The method, boiled down:
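³⁵S-labelled binder proteins (1 or 2 nM, in vitro translated) equilibrated with biotinylated human myostatin (0–100 nM) 30 min at 30 °C in PBS, 0.02% Triton X-100, pH 7.4; complexes captured on magnetic beads and counted. Affinity from one-site nonlinear binding fit; inhibition format used 20 or 25 nM myostatin with varying inhibitor.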
The source holds these as a separate data set.

For experiment [3], the target named is T1, human myostatin. Put plainly: cell-based or functional assay.
Experiment [4] concerns the target T2, human β-NGF (human, UniProt P01138 122-241, biotinylated (site not stated)).
T2 construct: also called biotinylated human β-NGF; nerve growth factor
Put plainly: radioactive equilibrium binding assay.

Experiment [5] addresses T3, streptavidin beads (M-280 beads) (UniProt P22629 37-163, limits assumed).
T3 construct: Capture beads used as negative control
Nature of the experiment: radioactive equilibrium binding assay.

The target in experiment [6] is T2, human β-NGF. Nature of the experiment: radioactive equilibrium binding assay. On the procedure:
Affinities of selected F13β2 binders to biotinylated myostatin were determined in radioactive equilibrium binding assay (FIGS. 11A and 11B; Table 3). ³⁵S-labeled binder proteins from selection pools and single clones were produced in vitro in a rabbit reticulocyte lysate translation kit (Ambion) and purified on M2-agarose (Sigma). Varying concentrations of biotinylated human myostatin (0-100 nM) or other proteins (protein 1: 100 nM; peptide 1: 250 nM; protein 2: 50 nM) were incubated with a constant concentration of the purified binder protein (1 or 2 nM) at 30° C. for 30 min in buffer B (1×PBS, 0.02% Triton X-100 [pH 7.4]). The receptor-binder complexes were captured by using 25 μl of M280 or Protein A (Dynal) (protein 2) magnetic beads for 10 min at room temperature on a Kingfisher instrument (Thermo Fisher Scientific). The beads were washed five times with 100 μl buffer B, and the amount of ³⁵S-methionine remained on the beads was measured by scintillation counting. Data were analyzed by using the GraphPad Prism software (GraphPad Software, Inc., San Diego, Calif.), fitted with a one-site, nonlinear binding equation. For inhibition assay the binding of ³⁵S-labeled proteins to 20 or 25 nM of biotinylated human myostatin was performed in the presence of varying concentrations of inhibitor (human activin receptor IIB/Fc chimera (R&D Systems, Minneapolis, Minn.) (0-250 nM); protein 1 (100 nM), peptide 1 (250 nM), protein 2 (50 nM); proteins, produced in E. coli, M17, M7, M29, M21, M1-1, WT F13β2 (500 nM)).
Selected F13β2 binders were tested for binding to biotinylated β-NGF in radioactive equilibrium binding assay (FIGS. 21A and 21B; Table 4) according to the procedure described for myostatin binders. NGF at concentrations up to 100 nM was incubated with a constant concentration of the purified binder protein (1 or 2 nM) at 30° C. for 1 hour. Affinities to human β-NGF differed greatly between various binders.
This is another data set of the same source.

Read-outs that look alike come from different tables or passages of the source.

T2 sequence (P01138 122-241 limits assumed): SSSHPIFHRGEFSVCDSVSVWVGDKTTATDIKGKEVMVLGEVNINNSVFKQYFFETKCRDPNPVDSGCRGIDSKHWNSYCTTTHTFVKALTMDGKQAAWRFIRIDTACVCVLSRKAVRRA
T3 sequence (P22629 37-163 limits assumed): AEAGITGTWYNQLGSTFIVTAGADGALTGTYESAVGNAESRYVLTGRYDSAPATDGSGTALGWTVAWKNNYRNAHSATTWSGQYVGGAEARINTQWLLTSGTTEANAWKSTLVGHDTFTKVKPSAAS

B1: 45927-B3 (designed binder)
chain: MTIPEIIIKVRGTQVVGSDMTVIVEFTNPLKETLRNVWVHLDGPGVTRPMKKMFLKIPGCSTVQWEEVVRPWVSGHRKLIASMSMLGLPFSLRFIPVYGELDVQIQRRDYKDDDDK
notes: group M1-Aext; extended FG loop; also called Mext (clone ID)
The Kd is the constant that tells how readily two partners part at equilibrium. As for B1, the Kd with human myostatin [1] is 53 to 86 nM. Moreover, in the experiment with human myostatin [2], the B max was determined as 50.7% and the Kd was found to be 86.7 nM.

B2: 45927-A3 (designed binder)
chain: MTIPEIIIKVRGTQVVGSDMTVIVEFTNPLKETLRNVWVHLDGPGVTRPMKKMFLKILGCSTVQWEEVVRPWVSGHRKLIASMSMLGLPFSLRFIPVYGELDVQIQRRDYKDDDDK
notes: group M1-Aext
On to B2, for which the Kd is 53 to 86 nM with human myostatin [1] and 53.2 nM with human myostatin [2]. Besides, the B max in the experiment with human myostatin [2] amounted to 36.4%.

B3: M1-1, E. coli-produced (designed binder)
chain: MTIPEIIIKVRGTQVVGSDMTVIVEFTNPLKETLRNVWVHLDGPGVTRPMKKMFPAIPMNHKVQWEEVVRPWVSGHRKLIASMPQLFHIHVYGELDVQIQRRHHHHHH
As for B3, the “EC50 (read off the curve); blocking of myostatin-induced inhibition of MPC-11 proliferation” value in the experiment with human myostatin [3] is about 20 nM.

B4: 61362-B8 (I23L) (designed binder)
chain: MTIPEIIIKVRGTQVVGSDMTVLVEFTIPLQDILNVWVHLDGPGVTRPMKKMFFSIRMTPAVQWEEVVRPWVSGHRKLIASMSFHTHRHVYGELDVQIQRRDYKDDDDK
notes: group N4; I23L
As for B4, the Kd with human β-NGF [4] was under 100 nM. Moreover, in experiment [5], the binding result is on record as “no binding”. In the experiment with human β-NGF [6], the B max is 2.1% and the Kd came to 3.8 nM.

The record behind these values is patent publication US20110059504A1 (GENERAL HOSPITAL, published 2011).
